Source: article PMC4876634 (Nature chemical biology, 2016)
Changes are numbered by the printed parent chain.

Assays:
[1] = target: T1, Suv39h1, wild type (FLAG-tagged, recombinant human) (human, UniProt O43463 1-412); assay: pull-down
T1 sequence: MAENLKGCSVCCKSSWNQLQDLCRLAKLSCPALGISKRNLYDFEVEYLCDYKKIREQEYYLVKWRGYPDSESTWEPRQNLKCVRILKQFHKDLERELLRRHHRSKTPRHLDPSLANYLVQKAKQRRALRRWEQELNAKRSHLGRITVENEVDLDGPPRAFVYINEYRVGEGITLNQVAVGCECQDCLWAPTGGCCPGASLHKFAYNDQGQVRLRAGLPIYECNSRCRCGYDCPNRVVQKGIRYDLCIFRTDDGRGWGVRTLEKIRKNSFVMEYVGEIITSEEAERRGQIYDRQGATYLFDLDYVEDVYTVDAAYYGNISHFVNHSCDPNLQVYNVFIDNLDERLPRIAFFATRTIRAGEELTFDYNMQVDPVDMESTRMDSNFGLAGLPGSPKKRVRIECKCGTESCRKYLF

[2] = target: T2, Suv39h1 R24,K27A double mutant (FLAG-tagged) (human, UniProt O43463 1-412, R24A | K27A); assay: pull-down
T2 sequence: T1 sequence with R24A, K27A

binding result [1]: binds
binding result [2]: binds
B1: HP1β (human Cbx1), His6-tagged (natural protein)
chain: not shown
